These results are taken from the nanobody polyreactivity screen of Harvey et al. (2022).

A short description of the data set: yeast display, Sf9 membrane polyspecificity reagent, FACS + sequencing; frameworks hold sequencing errors. Summed up: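 Galactose-induced (36–48 hours) yeast carrying a synthetic nanobody display library were exposed to 10% biotinylated, detergent-solubilized Sf9 membrane reagent at 4 °C for 1 hour. FACS followed streptavidin microbead enrichment, using low and high (top ~1%) gates for expression (anti-HA) and reagent binding (streptavidin). Colony PCR, MiSeq 2 × 250 sequencing and CDR-length filtering followed. Labels for polyreactivity reflect the gate of origin.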
“QVQLGESGGGLVQAGGSLRLSCAACGSIFKPYAMGWYRQAPGTERELVAAISGIGGSTYYADSVKGRFTISRDTAKNTVYLQMNSLTPEDTAVYYCAADTFFKIFSEYNYWGQGTQVTLSS”: the “polyreactivity (PSR sort gate)” value is given as “high polyreactivity”.

In the case of “QVQLGESGGRKVQPGGSLRLSCAASGYTIAWYVMGWSRQAPGKESELVAAISWSGGRTYYADSVKGRFTISRDNAKNTVYLQMNSLNPQDTAVYYCNAYWNPASKYDYWGQGTQVTVSS”, the “polyreactivity (PSR sort gate)” value was “high polyreactivity”.

Take “QVQLVESGGGLVQAGGSLRLSCAASGSIFWSYDMGWYRQAPGKERELVPTITSGDSTYYADSVKGRFTISRDNAKNTVYLQMNSLKPEDTAVYYCAAGTYYRRTYWHREYDYWGQGTQVTVSS”: the “polyreactivity (PSR sort gate)” value is “low polyreactivity”.

Turning to “QVHLVESGGGLVQAGGSLRLSCAASGSIFTRYVMGWYRQAPGKERELVAAISGRGSSTYYADSVKGRFKISRDYAKNTVYLQMNSLKPEDTAVYYCAAEIVVFYSEGQRNTFYYWGQGTQVTVSS”, the “polyreactivity (PSR sort gate)” value is recorded as “high polyreactivity”.

On to “QVQLVESGGGLVQARGSLRLSCASSGITLYFNTMGCYRQPPGKESELVASISGGSSTYYADSVKGRFTISRDNAKNTVYLQMNSLKPEDTAVYYCNAQGSLFRGWFDYDYWGLGTQVTVSS”, for which the “polyreactivity (PSR sort gate)” value is “low polyreactivity”.

On to “QVQLVESGGGLVQAGGSLRLSCAASGRIFASYVMGWYRQAPGKERELVAAISYGGSRTYYADSVKGRFTISRDNAKNTVYLQMNSLKPEDTAVYYCNARSKFYYHYWMDYWGQGTQVTVSS”, for which the “polyreactivity (PSR sort gate)” value is recorded as “high polyreactivity”.

On to “QVQLVESGGGLVQAGGSLRLSCAASGGTFHYNAMGWSRQAPGKERELVAAITESGGRTYYADSVKGRFTISRDNAKNTVYLQMNSLKPEDTAVYYCNADQDYDAAYRSDYWGQGTQVTVSS”, for which the “polyreactivity (PSR sort gate)” value was “low polyreactivity”.

With “QFQLVESGGGLVQAGGSLRLSCSSSGSIFGAYDMGWYRQAPGKERELVAAITSVGSTYYADSVKGRFTISRDNAKNTVYLQMNSLKPEDTAVYDCAKRQWRPTYRYGYWGQGTQVTVSW”, the “polyreactivity (PSR sort gate)” value is “low polyreactivity”.

For “QVQLVESGGGLVQAGGSLRLSCAASGIIFYEYVMGWYRPAPGKERELVAAINRSGGSTYYADSVKGRFTISRDNAKNTVYLQMNSLKPEDTAVYYCAASSTYDGRKYYYWGQGTQVNVSS”, the “polyreactivity (PSR sort gate)” value is listed as “high polyreactivity”.

Take “QVQLVESGGGLVQAGGSLRLSCAASGSTFLYYAMGWYRQAPGKERELVAAIDWSDTSTYYADSVKGRFTISRDNAKNTVYLQMNSLKPEDTAVYYCAADTYLVDGDYWGQGTQETVSS”: the “polyreactivity (PSR sort gate)” value was “low polyreactivity”.

On to “QVQIVESGGGLVQAGGSLRLSCAASGRIFRRYAMGWYRQAPGKEREFVAAISYGGGATYYADSVKGRFTISRDNAKNTFYLQMNSLKPEDTAVYYCNAEVPKSLLLYYPWGYGYWGQGTQVTVSS”, for which the “polyreactivity (PSR sort gate)” value is given as “low polyreactivity”.

As to “QVQLVESGGGLVQAGGSLRLSCAASGSTFGQYAMGWYRQAPGKERELVAAISRNGGRTYYADSVKGRFTISRDNAKNTVYLLMNSLKPEDTAVYYCAAGGFLYVYYRGMYYWGQGTQVTVSS”, the “polyreactivity (PSR sort gate)” value was “high polyreactivity”.

As for “QVQLVESGGGLVQAGGSLRLSCAASGLIIRYYAMGWYRQARGKERELVAAISYNGGSTYYADSVKGRFTISRDNAKNTVYLQMNSLKPEDTAVYYCAARLYGRYGYWGQGTQVTVSS”, the “polyreactivity (PSR sort gate)” value is listed as “high polyreactivity”.

On to “QLQLVESGGGLVQAGGSLRLSCAASGFTFRWYVMGWYRQAPCKQRELVASIRSGGSTYYADSVKGRFTISRDNAKNTVYLQMNSLKPEDTAVYYCAARFGRDRYYYWGQGTQVTVSS”, for which the “polyreactivity (PSR sort gate)” value is given as “high polyreactivity”.

In the case of “QFQLVESGGGLDQAGGSLRLSCAASGSIFYYNAMGWYRQAPGKERELVAAIDLNDGITYYADSVKGRFTISRDNAKNTVYLQMNSLKPEDTAVYYCAADSYYFLYDSWGQGTQVTVSS”, the “polyreactivity (PSR sort gate)” value is on record as “high polyreactivity”.

In the case of “QVQLVESGGGLVQAGGSLRLSCAASGSIFLGNAMGWYRQAPGKERELVAGITNGDNTNYADSVKGRFTISRDNAKNTDYLQMNSLKPEDTAVYYCATGPYLIYDYWGQGTQVTVSS”, the “polyreactivity (PSR sort gate)” value is given as “low polyreactivity”.

Turning to “QVQLVESGGGLVQAGGSLRLSCAASGFTFSEYAMGWYRQAPGKERELVAAISRGTSTYYADSVKGRFTISRDNAKNTVYLQMNSVKPEDTAVYYCAAAPSYYPARHGYWGQVTQVTVSS”, the “polyreactivity (PSR sort gate)” value is “low polyreactivity”.

Take “QVQLVESGGGLVQAGGSLRLSCAASGSTFTNYAMGWYRQAPGKERELVAGISRSGGTTYYADSVKGRFTISRDNVKNTVYLQMNSLKPEDTAVYYCAAVGYFGGYRYDYWGQGTQVTVSS”: the “polyreactivity (PSR sort gate)” value is on record as “high polyreactivity”.

Consider “QVKLVESGGGLVQAGGSLRLSCCASGSTFSPNTMGRYRQAPGKDREVVAAITYRGANTYYADSVKGRFTISRDNAKLTVYLQMNSLKPEDTAVYYCSAVYAYHHVGFGYWGQGTQVTVSS”, for which the “polyreactivity (PSR sort gate)” value is listed as “low polyreactivity”.

Turning to “QLHLEESGGGLVQAGGSLRISCAASGSTFGIYAMGSYRQAPGKEREILAAISVGGGRTYYADTVKGRFTISRDNAKNTVLLQMNSLKPEDTAVYYCAVYGFWGLGTQVTVSS”, the “polyreactivity (PSR sort gate)” value is “high polyreactivity”.

Turning to “QVQLVESGGGLVQAGGSLRLSCAASGSTFGHYAMGWYRQAPGKERELVAAITWSGGSTYYADSVKGRFTISRDNAKNTVYLQMNSLKPEDTAVYYCNAVTRRSAQVGHDYWGQGTQVTVSS”, the “polyreactivity (PSR sort gate)” value is “high polyreactivity”.

“QVQLVESGGGLVQAGGSLRLSCAASGRTFRVYAMGWYRQAPGKEREFVAAISYSGGRTNYADSVKGRFTISRDNAKNTVYLQMNSLKPEDTAVYYCARTKQEYTFGQFYLGDYWGQGTQVTVSS”: the “polyreactivity (PSR sort gate)” value is “low polyreactivity”.

In the case of “QVQLVESGGGLVQAGGSLRLSCAASGLTFVVYAMGWYRQATGKERELVASITSSGGRTYYADSVKGRFTISRDNAKNTVYLQMTSLKPEDTAVYYCAAVRRRTRYGYRYDYWGQGTQVTVSS”, the “polyreactivity (PSR sort gate)” value was “high polyreactivity”.

For “QVEHVESGGGLVQAGGSLRLSCAASGGTFSHNDMGWYRQAPGKERELVPSINSGGSTNYADSVKGRFTISRDNAKNTVDLQMNSLKPEDNAVYYCAADVEGWTVESDVYRVGYDYWGQCTQVTVSS”, the “polyreactivity (PSR sort gate)” value is “low polyreactivity”.

With “QVQRVESGGGLVQAGGSLRLSCAASGITFRGYAMGWYRQAPGKERELVAAINSRGGSTYYADSVKGRFTISRDNAKNTVYLQMNSLKPEDTAVYYCATRSFGRMDYWGQGTQVTVSS”, the “polyreactivity (PSR sort gate)” value is “high polyreactivity”.

On to “QVQLVESGGGLVQAGGSLRLSCAASGSIFYYYSMGWYRQAPGKERELVAAMSTGGGSTYYADSVKGRFTISRDNAKNTVYLQMNSLKPEDTSVYYCAAPWGYYSSFTDDYWGQGTQVTVSS”, for which the “polyreactivity (PSR sort gate)” value was “low polyreactivity”.

For “QVQLVESGGGLVQAGGSLRLSCAASGFTFGFNDMGWYRQAPGKERELVAAITIGGTTNYADSVKGRFTISRDNAKNTVYLQMNSLKPEDTAVYSCAADTRVVYDEDYWGQGTQVTVSS”, the “polyreactivity (PSR sort gate)” value is “low polyreactivity”.

Consider “QVQLVESGGGLVQAGGSLRLSCAASGRIFGTNAMGWYRQAPGKERELVAAISRGGNTYYADSVKGRFTISRDNAKNTVYLQMNSLKPEDTAVYYCAARPGSGRSYTSDYWGQGTQVTVSS”, for which the “polyreactivity (PSR sort gate)” value is “high polyreactivity”.

With “QVQLVESGGGLVQAGGSLRLSCAASGRTFYPYAKGWYRQAPGKERELVAAIRWSGGSTYYADSVKGRFTISRDNAKNTVYLQMNSLKPEDTAVYYCNADWKSYRGPKFDYWGQGTQVTVSS”, the “polyreactivity (PSR sort gate)” value was “low polyreactivity”.

For the sequence “QVQLEESGGGLVQAGGSLRLTCAASGRIFTPYAMGWYRQAPGKQTELVADIRDGSTYYADSVKGRFTISRDNAKNTVYLQMNSLKPEDTAVYYSRYYIWVWWSGAYDYWGQGTQVTVSS”, the “polyreactivity (PSR sort gate)” value is “low polyreactivity”.

Take “QVQLVESGGGIVQAGGSLRLSCAGSGRTFLWNAMGWYRQAPGKERELVARINLSGGRTYYADSVKGRFTISRDNAKKTVNLQMNSLKPEDTAFYYCAATVVRYRRDSWGQGTQVTVSS”: the “polyreactivity (PSR sort gate)” value is on record as “low polyreactivity”.

On to “LVQLVESGGGLVQAGGSLRLSCAASGITLARNAMGWYRQAPGKEWELVAAITWSGGTTYYADSVKGRFTISRDNAKNTVYLQMNSLKPEDTAVYYCAASAKLHYYRTYRYNYWGQGTQVTVSS”, for which the “polyreactivity (PSR sort gate)” value is recorded as “high polyreactivity”.

In the case of “QVQLVESGGGLVQAGGSLRLSCAASGRIFFYNAMGWYRQAPGKERELVAAIDSGSSTYYADSVKGRFTISRDNAKNTVYLQMTSLKPEDTAVYYCAADGRRWYTEYDYWGQGTQVTVSS”, the “polyreactivity (PSR sort gate)” value is recorded as “low polyreactivity”.

Take “QVQLVESGGGLVQAGGSLRLSCAASGFIFLNYAMGWYRQAPGKERELVAAITSGGNTTYADSVKGRFTISRDNAKNTVYLQMNSLKPEDTAVYYCAADGWRAGPGDYWGQGTQVIVSS”: the “polyreactivity (PSR sort gate)” value is on record as “low polyreactivity”.

Regarding “QVQLVESGGGLVQAGGSLRLSCAASGSIFYRNAMGWYRQAPGKERELVAAISGRGGSTNYADSVKGRFTISRDNAKNTVYLQMNSLKPEDTAVYYCNRYGVSNILVRGGYWGQGTQVTVSS”, the “polyreactivity (PSR sort gate)” value is “high polyreactivity”.

Turning to “QVQLVESGGRLVQAGGSLRLSCAASGSTFYFYAMGWYRQEPGKERELVAAISFTDTSTYYADSVKARFTISRDNAKNNVYLQMNSLKPEDTAVYYCAADSDYWGQGTQVTVSS”, the “polyreactivity (PSR sort gate)” value was “high polyreactivity”.

For “QVQLVESGGGLVQAGGRLRLSCAASGRIFQHNTMGWYRQAPGKEREFVAAIRRSGGSTYYADSVKGRFTISRDNAKNTVYLQMNSLRPEDTAVYYCAARDYPTGTRRWGGGDSWGQGTQVTVSS”, the “polyreactivity (PSR sort gate)” value is given as “low polyreactivity”.

As for “QVHLVESGGGLVQAGGSLRLSCAASGSIFRLYSMGWYRQAPGKERELVARITTGGSTNYADSVKGRFTISRDNAKNTVYLQMNSLKPEDTAVYYCNAGVWVTAQLGLQKYSYWGQGTQVTVSS”, the “polyreactivity (PSR sort gate)” value is recorded as “high polyreactivity”.

In the case of “QVQHVESGGGLVQAGGSLRLSCAASGRTSNIYAMGWYRQAPGKERELVAAIRTGGSTNYADSVKGRFTISRDNAKNTVYLQMNSLKPEDTAVYYCAATSRRSRPAEEYWGQGTQVTVSS”, the “polyreactivity (PSR sort gate)” value is on record as “high polyreactivity”.

As for “QVQLVESGGGLVQAGGSLRLSCAASGSTFTYNAMGWYRQAPGKERELVASISSGTTTYYADSVKGRFTISRDNAKNTVYLQMNCLKPEDTAVYYCAVDSWSRVQGWLAHYYDYWGQGTQVTVSS”, the “polyreactivity (PSR sort gate)” value was “low polyreactivity”.

Regarding “QVQLVESGGGLVQAGGSLRLSCAASGSISKGYAMGWYRQAPGKERELVARISGDGGSTYYADSVKGRFTISRDNAKNTVYLQMNSLKPEDTAVYYCNARAYYGIRYYSWGQGTQVTVSS”, the “polyreactivity (PSR sort gate)” value is “high polyreactivity”.
